The values below are quoted from earlier work in article PMC3386954.

pKd: −log10 of the molar value. Where only a bound is given, the exact number is not on record here.

The target in this data set is Capillary morphogenesis gene 2 protein (Homo sapiens) (UniProt P58335).

On to “Protective antigen (from UniProt P13423)”, for which the pKd was less than 9.77.
